From publication PMC9122601, “A widespread family of WYL-domain transcriptional regulators co-localizes with diverse phage defence systems and islands”

Target: T1, His6-BrxR-R17A (Escherichia fergusonii (plasmid pEFER), UniProt B7L3Y3 14-308, R30A)
T1 sequence: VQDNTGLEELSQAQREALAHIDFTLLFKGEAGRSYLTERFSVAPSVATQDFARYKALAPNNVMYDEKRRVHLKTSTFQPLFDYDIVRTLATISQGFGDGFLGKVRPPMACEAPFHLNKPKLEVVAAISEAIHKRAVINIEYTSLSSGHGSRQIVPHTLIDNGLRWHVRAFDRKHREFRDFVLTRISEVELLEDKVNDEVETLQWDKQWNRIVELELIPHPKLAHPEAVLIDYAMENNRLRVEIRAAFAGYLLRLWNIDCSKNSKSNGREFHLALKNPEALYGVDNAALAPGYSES
Assay: EMSA; only non-specific binding at high protein; EMSA: 10 mM Tris-HCl pH 7.9, 150 mM KCl, 0.5 mM EDTA, 0.2 mM DTT, 0.1% Triton X-100, 13% glycerol (1x of 5x buffer), 1 ug poly(dI-dC) per 10 ul, 2500 fmol probe, 25 C 30 min; 7% native PAGE in 0.5x TBE
Details: protein: recombinant; tags: N-terminal His6; chain copies: 2; label: 5' 6-FAM on reverse strand (primer TRB1068); blunt

B1: WT IR1-IR2 probe (R7, R-BOX1) (dsDNA)
DNA 1: GACGACTTGTTGATACTATGAAACCTACTGAAAAACAGTAGGTTGCTTGATGGCATTCAATCGATGGCTTAAGCTTTTGTCAGTGCGCA
DNA 2: TGCGCACTGACAAAAGCTTAAGCCATCGATTGAATGCCATCAAGCAACCTACTGTTTTTCAGTAGGTTTCATAGTATCAACAAGTCGTC
Q: Does B1 bind?
A: no binding
